Measured values published in patent publication US20220324974A1 (SORRENTO THERAPEUTICS, published 2022).
One block for each binder: values may come before it.

Columns and labels:
[1] = molecular target: T1, CD38 expressed on human tumor cell lines (RPMI8226, MM1.R and other CD38(+) lines) (human, UniProt P28907 1-300); assay: cell-based or functional assay
[2] = molecular target: T1, CD38 expressed on human tumor cell …; assay: cell-based or functional assay; remark: listed apart in the source
[3] = molecular target: T2, CD3 antigen on primary human T cells (human, UniProt P07766 23-207; P04234 22-171; P09693 23-182); assay: flow cytometry on CD38-minus primary human T cells
T2 construct: CD3 is a multi-chain complex; also called CD3-expressing T cells; CD3-expressing CD38-minus T cells

[4] = molecular target: T3, BCMA expressed on MM1.R myeloma cells (UniProt Q02223 1-184); assay: cell-based or functional assay
T3 sequence (looked up): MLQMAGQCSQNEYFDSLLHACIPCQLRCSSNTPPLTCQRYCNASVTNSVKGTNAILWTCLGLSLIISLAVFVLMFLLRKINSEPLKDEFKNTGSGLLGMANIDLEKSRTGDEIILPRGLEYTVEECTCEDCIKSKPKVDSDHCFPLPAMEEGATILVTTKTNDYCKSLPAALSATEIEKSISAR

[5] = molecular target: T2, CD3 antigen on primary human T cells; assay: flow cytometry on freshly isolated primary human T cells, anti-human Fc-APC secondary, GeoMean RL1-H of singlets
[6] = molecular target: T2, CD3 antigen on primary human T cells; assay: as above; remark: listed apart in the source
[7] = molecular target: T4, BCMA target antigen (Acro Biosystems catalog # BCA-H522g) (UniProt Q02223 1-54); assay: SPR Biacore, antibody captured by anti-Fc, antigen as analyte, 1:1 model
T4 construct: range 1-54; Bought protein; also called BMCA target antigen; BCMA antigen
T4 sequence (looked up): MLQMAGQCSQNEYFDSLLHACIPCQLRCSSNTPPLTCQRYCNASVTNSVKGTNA

[8] = molecular target: T2, CD3 antigen on primary human T cells; assay: flow cytometry on CD38-minus primary human T cells, anti-human Fc-APC secondary, GeoMean RL1-H of singlets

B1: Kv5.1 CD38/CD3 three-chain in-tandem bispecific antibody (bispecific antibody)
chain 1: QVQLVESGGGLVKPGGSLRLSCAASGFTFSDDYMSWIRQAPGKGLEWVASVSNGRPTTYYADSVRGRFTISRDNAKNSLYLQMNSLRAEDTAVYYCAREGWSGEFTDWGQGTLVTVSSASTKGPSVFPLAPSSKSTSGGTAALGCLVKDYFPEPVTVSWNSGALTSGVHTFPAVLQSSGLYSLSSVVTVPSSSLGTQTYICNVNHKPSNTKVDKRVEPKSCGGSGSGSGGSSGGGSGGGGSQVQLVQSGAEVKKPGASVKVSCKASGYTFISYTMHWVRQAPGQGLEWMGYINPRSGYTHYNQKLKDKATLTADKSASTAYMELSSLRSEDTAVYYCARSAYYDYDGFAYWGQGTLVTVSSASTKGPSVFPLAPSSKSTSGGTAALGCLVKDYFPEPVTVSWNSGALTSGVHTFPAVLQSSGLYSLSSVVTVPSSSLGTQTYICNVNHKPSNTKVDKRVEPKSSDKTHTCPPCPAPEAAGGPSVFLFPPKPKDTLMISRTPEVTCVVVDVSHEDPEVKFNWYVDGVEVHNAKTKPREEQYNSTYRVVSVLTVLHQDWLNGKEYKCKVSNKALPAPIEKTISKAKGQPREPQVYTLPPSREEMTKNQVSLSCAVKGFYPSDIAVEWESNGQPENNYKTTPPVLDSDGSFFLVSKLTVDKSRWQQGNVFSCSVMHEALHNHYTQKSLSLSPGK
chain 2: not shown
chain 3: DIQMTQSPSSLSASVGDRVTITCSASSSVSYMNWYQQKPGKAPKRLIYDTSKLASGVPSRFSGSGSGTDFTLTISSLQPEDFATYYCQQWSSNPPTFGGGTKVEIKRTVAAPSVFIFPPSDEQLKSGTASVVCLLNNFYPREAKVQWKVDNALQSGNSQESVTEQDSKDSTYSLSSTLTLSKADYEKHKVYACEVTHQGLSSPVTKSFNRGESGGSGGDKTHTCPPCPAPEAAGGPSVFLFPPKPKDTLMISRTPEVTCVVVDVSHEDPEVKFNWYVDGVEVHNAKTKPREEQYNSTYRVVSVLTVLHQDWLNGKEYKCKVSNKALPAPIEKTISKAKGQPREPQVYTLPPSREEMTKNQVSLWCLVKGFYPSDIAVEWESNGQPENNYKTTPPVLDSDGSFFLYSKLTVDKSRWQQGNVFSCSVMHEALHNHYTQKSLSLSPGK
IC50 pM, TAA-dependent cytotoxicity (MM1.R target cells by the text) [1]: 3 pM
IC50 pM, TAA-dependent cytotoxicity towards RPMI8226 cells [2]: 4.2 pM

B4: Kv4.33 (4XGS) CD38/CD3 three-chain non-tandem bispecific antibody (bispecific antibody)
heavy: QVQLVESGGGLVKPGGSLRLSCAASGFTFSDDYMSWIRQAPGKGLEWVASVSNGRPTTYYADSVRGRFTISRDNAKNSLYLQMNSLRAEDTAVYYCAREGWSGEFTDWGQGTLVTVSSASTKGPSVFPLAPSSKSTSGGTAALGCLVKDYFPEPVTVSWNSGALTSGVHTFPAVLQSSGLYSLSSVVTVPSSSLGTQTYICNVNHKPSNTKVDKRVEPKSSDKTHTCPPCPAPEAAGGPSVFLFPPKPKDTLMISRTPEVTCVVVDVSHEDPEVKFNWYVDGVEVHNAKTKPREEQYNSTYRVVSVLTVLHQDWLNGKEYKCKVSNKALPAPIEKTISKAKGQPREPQVYTLPPSREEMTKNQVSLSCAVKGFYPSDIAVEWESNGQPENNYKTTPPVLDSDGSFFLVSKLTVDKSRWQQGNVFSCSVMHEALHNHYTQKSLSLSPGKGGSGSGSGGSSGGGSGGGGSQVQLVQSGAEVKKPGASVKVSCKASGYTFISYTMHWVRQAPGQGLEWMGYINPRSGYTHYNQKLKDKATLTADKSASTAYMELSSLRSEDTAVYYCARSAYYDYDGFAYWGQGTLVTVSSASTKGPSVFPLAPSSKSTSGGTAALGCLVKDYFPEPVTVSWNSGALTSGVHTFPAVLQSSGLYSLSSVVTVPSSSLGTQTYICNVNHKPSNTKVDKRVEPKSC
light 1: not shown
light 2: DIQMTQSPSSLSASVGDRVTITCSASSSVSYMNWYQQKPGKAPKRLIYDTSKLASGVPSRFSGSGSGTDFTLTISSLQPEDFATYYCQQWSSNPPTFGGGTKVEIKRTVAAPSVFIFPPSDEQLKSGTASVVCLLNNFYPREAKVQWKVDNALQSGNSQESVTEQDSKDSTYSLSSTLTLSKADYEKHKVYACEVTHQGLSSPVTKSFNRGEC
EC50 (read off the curve) [8]: ~2 µg/mL

More lines, main results first:

fold reduction of binding to CD3 [3]: > 100 fold
B2: Kv6.1 (7GS) CD38/CD3 two-chain in-tandem bispecific antibody with non-cleavable GS second linker (bispecific antibody)
heavy: QVQLVESGGGLVKPGGSLRLSCAASGFTFSDDYMSWIRQAPGKGLEWVASVSNGRPTTYYADSVRGRFTISRDNAKNSLYLQMNSLRAEDTAVYYCAREGWSGEFTDWGQGTLVTVSSASTKGPSVFPLAPSSKSTSGGTAALGCLVKDYFPEPVTVSWNSGALTSGVHTFPAVLQSSGLYSLSSVVTVPSSSLGTQTYICNVNHKPSNTKVDKRVEPKSCGGSGSGSGGSSGGGSGGGGSQVQLVQSGAEVKKPGASVKVSCKASGYTFISYTMHWVRQAPGQGLEWMGYINPRSGYTHYNQKLKDKATLTADKSASTAYMELSSLRSEDTAVYYCARSAYYDYDGFAYWGQGTLVTVSSASTKGPSVFPLAPSSKSTSGGTAALGCLVKDYFPEPVTVSWNSGALTSGVHTFPAVLQSSGLYSLSSVVTVPSSSLGTQTYICNVNHKPSNTKVDKRVEPKSSDKTHTCPPCPAPEAAGGPSVFLFPPKPKDTLMISRTPEVTCVVVDVSHEDPEVKFNWYVDGVEVHNAKTKPREEQYNSTYRVVSVLTVLHQDWLNGKEYKCKVSNKALPAPIEKTISKAKGQPREPQVYTLPPSREEMTKNQVSLSCAVKGFYPSDIAVEWESNGQPENNYKTTPPVLDSDGSFFLVSKLTVDKSRWQQGNVFSCSVMHEALHNHYTQKSLSLSPGK
light: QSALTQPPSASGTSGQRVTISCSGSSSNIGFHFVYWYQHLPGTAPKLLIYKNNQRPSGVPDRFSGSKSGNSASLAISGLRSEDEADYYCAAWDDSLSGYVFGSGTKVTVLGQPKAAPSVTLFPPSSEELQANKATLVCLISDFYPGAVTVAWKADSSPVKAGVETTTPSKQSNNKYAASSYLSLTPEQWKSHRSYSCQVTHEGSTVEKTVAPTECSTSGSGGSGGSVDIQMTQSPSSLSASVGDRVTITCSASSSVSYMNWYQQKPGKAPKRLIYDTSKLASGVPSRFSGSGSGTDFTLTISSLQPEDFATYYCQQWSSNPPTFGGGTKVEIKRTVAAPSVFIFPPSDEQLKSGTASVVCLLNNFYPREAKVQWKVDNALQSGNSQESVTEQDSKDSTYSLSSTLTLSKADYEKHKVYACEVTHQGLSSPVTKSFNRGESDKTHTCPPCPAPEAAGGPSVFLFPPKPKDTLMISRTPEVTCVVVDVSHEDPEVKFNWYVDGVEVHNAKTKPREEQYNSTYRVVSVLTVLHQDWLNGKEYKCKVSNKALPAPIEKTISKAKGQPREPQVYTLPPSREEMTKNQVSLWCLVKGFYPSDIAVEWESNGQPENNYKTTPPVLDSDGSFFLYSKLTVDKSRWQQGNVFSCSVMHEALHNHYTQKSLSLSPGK
notes: also called control non-cleavable bispecific antibody having an in-tandem structure (Kv6.1)

EC50 (read off the curve) [5]: ~2 µg/mL
EC50 (read off the curve) [6]: ~2 µg/mL
Kd [7]: 47.7 nM
koff [7]: 0.0364 s⁻¹
kon [7]: 762000 M⁻¹ s⁻¹
B3: Kv4.33 BCMA/CD3 three-chain non-tandem bispecific antibody (bispecific antibody)
chain 1: EVQLVESGGGLVKPGGSLRLSCAASGFTSSTAWMSWVRQAPGKGLEWVGRIKSKSDGGTTDYAAPVKGRFTISRDDSKNTLFLQMNSLKTEDTAVYYCAKGGGTYGYWGQGTTVTVSSASTKGPSVFPLAPSSKSTSGGTAALGCLVKDYFPEPVTVSWNSGALTSGVHTFPAVLQSSGLYSLSSVVTVPSSSLGTQTYICNVNHKPSNTKVDKRVEPKSSDKTHTCPPCPAPEAAGGPSVFLFPPKPKDTLMISRTPEVTCVVVDVSHEDPEVKFNWYVDGVEVHNAKTKPREEQYNSTYRVVSVLTVLHQDWLNGKEYKCKVSNKALPAPIEKTISKAKGQPREPQVYTLPPSREEMTKNQVSLSCAVKGFYPSDIAVEWESNGQPENNYKTTPPVLDSDGSFFLVSKLTVDKSRWQQGNVFSCSVMHEALHNHYTQKSLSLSPGKGSGGSSGGGSGGGGSQVQLVQSGAEVKKPGASVKVSCKASGYTFISYTMHWVRQAPGQGLEWMGYINPRSGYTHYNQKLKDKATLTADKSASTAYMELSSLRSEDTAVYYCARSAYYDYDGFAYWGQGTLVTVSSASTKGPSVFPLAPSSKSTSGGTAALGCLVKDYFPEPVTVSWNSGALTSGVHTFPAVLQSSGLYSLSSVVTVPSSSLGTQTYICNVNHKPSNTKVDKRVEPKSC
chain 2: SYVLTQPASVSGSPGQSVTISCTGTSSAHGGHYYVSWYQQHPGKAPKLMIYDVSNRPSGVSNRFSGSKSGNTASLTISGLQAEDEADYYCGSYTSSGSYVFGTGTKLTVLGQPKAAPSVTLFPPSSEELQANKATLVCLISDFYPGAVTVAWKADSSPVKAGVETTTPSKQSNNKYAASSYLSLTPEQWKSHRSYSCQVTHEGSTVEKTVAPTESSGGSGGDKTHTCPPCPAPEAAGGPSVFLFPPKPKDTLMISRTPEVTCVVVDVSHEDPEVKFNWYVDGVEVHNAKTKPREEQYNSTYRVVSVLTVLHQDWLNGKEYKCKVSNKALPAPIEKTISKAKGQPREPQVYTLPPSREEMTKNQVSLWCLVKGFYPSDIAVEWESNGQPENNYKTTPPVLDSDGSFFLYSKLTVDKSRWQQGNVFSCSVMHEALHNHYTQKSLSLSPGK
chain 3: DIQMTQSPSSLSASVGDRVTITCSASSSVSYMNWYQQKPGKAPKRLIYDTSKLASGVPSRFSGSGSGTDFTLTISSLQPEDFATYYCQQWSSNPPTFGGGTKVEIKRTVAAPSVFIFPPSDEQLKSGTASVVCLLNNFYPREAKVQWKVDNALQSGNSQESVTEQDSKDSTYSLSSTLTLSKADYEKHKVYACEVTHQGLSSPVTKSFNRGEC
notes: also called Kv4.33 (3XGS) BCMA/CD3
IC50 pM, TAA-dependent cytotoxicity (MM1.R target cells by the text) [4]: 134 pM

fold reduction of binding to CD3 [3]: > 1000 fold
B5: Kv6.2 (7GS) CD38/CD3 two-chain non-tandem bispecific antibody with non-cleavable GS second linker (bispecific antibody)
heavy: QVQLVESGGGLVKPGGSLRLSCAASGFTFSDDYMSWIRQAPGKGLEWVASVSNGRPTTYYADSVRGRFTISRDNAKNSLYLQMNSLRAEDTAVYYCAREGWSGEFTDWGQGTLVTVSSASTKGPSVFPLAPSSKSTSGGTAALGCLVKDYFPEPVTVSWNSGALTSGVHTFPAVLQSSGLYSLSSVVTVPSSSLGTQTYICNVNHKPSNTKVDKRVEPKSSDKTHTCPPCPAPEAAGGPSVFLFPPKPKDTLMISRTPEVTCVVVDVSHEDPEVKFNWYVDGVEVHNAKTKPREEQYNSTYRVVSVLTVLHQDWLNGKEYKCKVSNKALPAPIEKTISKAKGQPREPQVYTLPPSREEMTKNQVSLSCAVKGFYPSDIAVEWESNGQPENNYKTTPPVLDSDGSFFLVSKLTVDKSRWQQGNVFSCSVMHEALHNHYTQKSLSLSPGKGSGGSSGGGSGGGGSQVQLVQSGAEVKKPGASVKVSCKASGYTFISYTMHWVRQAPGQGLEWMGYINPRSGYTHYNQKLKDKATLTADKSASTAYMELSSLRSEDTAVYYCARSAYYDYDGFAYWGQGTLVTVSSASTKGPSVFPLAPSSKSTSGGTAALGCLVKDYFPEPVTVSWNSGALTSGVHTFPAVLQSSGLYSLSSVVTVPSSSLGTQTYICNVNHKPSNTKVDKRVEPKSC
light: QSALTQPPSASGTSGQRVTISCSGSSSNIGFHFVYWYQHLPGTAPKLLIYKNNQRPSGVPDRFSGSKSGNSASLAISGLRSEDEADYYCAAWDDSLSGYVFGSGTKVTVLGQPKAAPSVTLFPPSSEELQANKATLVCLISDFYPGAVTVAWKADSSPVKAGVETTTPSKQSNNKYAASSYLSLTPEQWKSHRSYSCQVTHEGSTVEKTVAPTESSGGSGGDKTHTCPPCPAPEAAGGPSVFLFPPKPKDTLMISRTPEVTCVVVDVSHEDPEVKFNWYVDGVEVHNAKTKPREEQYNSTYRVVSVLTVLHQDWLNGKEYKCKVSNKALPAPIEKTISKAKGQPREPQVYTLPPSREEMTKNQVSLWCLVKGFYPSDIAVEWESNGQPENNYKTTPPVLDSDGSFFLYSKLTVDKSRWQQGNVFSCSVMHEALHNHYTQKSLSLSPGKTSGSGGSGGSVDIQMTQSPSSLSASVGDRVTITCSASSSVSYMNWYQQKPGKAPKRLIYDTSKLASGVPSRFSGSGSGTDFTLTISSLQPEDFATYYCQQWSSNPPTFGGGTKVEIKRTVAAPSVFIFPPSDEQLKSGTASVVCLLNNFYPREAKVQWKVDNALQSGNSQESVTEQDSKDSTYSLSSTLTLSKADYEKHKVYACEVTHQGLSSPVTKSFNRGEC
notes: also called control non-cleavable bispecific antibody having a non-tandem structure (Kv6.2)
